{
  "source": "patent US8465735B2",
  "about": "“Variant form of urate oxidase and use thereof” (Savient Pharmaceuticals, Inc., priority 2005, dated 2013)",
  "system": "O=c1[nH]c(=O)c2[nH]c(=O)[nH]c2[nH]1",
  "assay": "purified protein, by the assay type",
  "settings": "other: sodium borate buffer, pH 9.2, 25.0 °C",
  "protocol": "Activity of uricase was measured by a UV method. […] Uricase potency is expressed in activity units per mg protein (U/mg).\nThe absorbance change with time (ΔA292 per minute) was derived from the linear portion of the curve.\nThe specific activity (potency) of uricase was calculated by dividing the activity in U/ml with protein concentration in mg/ml.",
  "data": [
    {"substance": "A. flavus (Aspergillus flavus) uricase, native (Merck) (Aspergillus flavus)", "values": [
      {"measurement": "Km", "value": 23.54, "unit": "µM"},
      {"measurement": "kcat", "value": 11.2, "unit": "s⁻¹"}
    ]}
  ]
}
